Reference: paper PMC11570694

Columns and labels:
[1] = target: recombinant TTC5 labelled with Oregon Green 488 maleimide (human) (UniProt Q8N0Z6); experiment: MST; 50 nM Oregon Green 488-labelled TTC5 with various porcine tubulin concentrations in 250 mM NaCl, 1 mM TCEP, 20 mM HEPES pH 7.4; duplicates
[2] = target: endogenous TTC5 of rabbit reticulocyte lysate (rabbit (endogenous in rabbit reticulocyte lysate)) (UniProt G1SNQ6); experiment: cross-linking; competition: porcine brain tubulin at the indicated concentrations added to isolated β-tubulin 94-mer RNCs (Bpa at position 7) carrying endogenous TTC5, 10 min on ice in PSB, then UV; autoradiography, anti-TTC5 immunoprecipitation
Chain of endogenous TTC5 of rabbit reticulocyte lysate (rabbit (endogenous in rabbit reticulocyte lysate)) (G1SNQ6 entry or part of it): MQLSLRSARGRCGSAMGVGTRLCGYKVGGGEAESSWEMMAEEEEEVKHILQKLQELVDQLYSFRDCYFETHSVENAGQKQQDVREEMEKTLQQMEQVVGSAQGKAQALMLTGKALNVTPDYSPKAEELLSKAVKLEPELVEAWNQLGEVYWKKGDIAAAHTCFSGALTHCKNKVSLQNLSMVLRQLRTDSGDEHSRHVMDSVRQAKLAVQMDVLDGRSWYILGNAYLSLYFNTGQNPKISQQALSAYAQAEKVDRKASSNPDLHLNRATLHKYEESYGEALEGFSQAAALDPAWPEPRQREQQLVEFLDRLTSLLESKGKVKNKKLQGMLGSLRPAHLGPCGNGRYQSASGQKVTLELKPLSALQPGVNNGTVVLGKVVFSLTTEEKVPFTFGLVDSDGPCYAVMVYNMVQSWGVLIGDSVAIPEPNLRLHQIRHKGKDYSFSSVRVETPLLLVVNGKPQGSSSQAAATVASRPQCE

Chain of recombinant TTC5 labelled with Oregon Green 488 maleimide (human) (Q8N0Z6 whole entry): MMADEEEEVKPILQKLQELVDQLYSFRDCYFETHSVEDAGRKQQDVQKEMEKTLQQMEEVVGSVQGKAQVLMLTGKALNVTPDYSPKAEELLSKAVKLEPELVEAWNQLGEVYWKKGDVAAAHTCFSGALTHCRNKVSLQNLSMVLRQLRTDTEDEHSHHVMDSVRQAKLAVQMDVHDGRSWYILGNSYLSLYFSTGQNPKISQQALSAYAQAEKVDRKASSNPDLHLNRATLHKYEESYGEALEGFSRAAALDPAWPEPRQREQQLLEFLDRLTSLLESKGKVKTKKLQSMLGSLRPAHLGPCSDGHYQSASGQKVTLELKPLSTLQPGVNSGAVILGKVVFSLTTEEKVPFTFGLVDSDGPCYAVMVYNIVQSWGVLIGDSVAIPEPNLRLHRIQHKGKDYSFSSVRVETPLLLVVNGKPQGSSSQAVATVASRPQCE

Kd [1]: 500 nM | Ki [2]: 500 nM
Substance: porcine brain αβ-tubulins (from UniProt P02550 1-451; Q767L7 1-444) (complex)
